We go through one molecule from doi:10.1101/2025.04.27.650876, “Embryonic stem cell factors DPPA2/4 facilitate a unique chromatin state in non-small cell lung cancer” (bioRxiv, 2025).

In this assay the target is T1, Developmental Pluripotency Associated 2 (DPPA2), endogenous (human (endogenous in NCI-H661), UniProt Q7Z7J5 1-298).
T1 construct: DPPA2, human, endogenous in NCI-H661 non-small cell lung cancer cells; source: endogenous, NCI-H661 whole cell lysate
T1 sequence (looked up): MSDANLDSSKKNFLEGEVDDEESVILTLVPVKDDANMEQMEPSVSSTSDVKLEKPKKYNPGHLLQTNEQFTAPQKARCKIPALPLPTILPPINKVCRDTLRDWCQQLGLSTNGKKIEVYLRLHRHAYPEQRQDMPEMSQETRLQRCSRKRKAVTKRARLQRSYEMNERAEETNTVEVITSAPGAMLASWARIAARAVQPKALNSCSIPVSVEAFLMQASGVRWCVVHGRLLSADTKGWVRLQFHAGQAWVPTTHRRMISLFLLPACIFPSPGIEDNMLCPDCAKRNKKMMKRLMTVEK
Put plainly: affinity purification with mass spectrometry; endogenous DPPA2 or DPPA4 immunoprecipitated from NCI-H661 whole cell lysates (n=4 per condition); enrichment against species matched IgG IP by label-free quantitation; relative iBAQ for stoichiometry. As to conditions: partners not purified.

B1: Developmental Pluripotency Associated 4 (DPPA4), endogenous (natural protein, human (endogenous in NCI-H661), UniProt Q7L190 1-304, looked up)
chain: MLRGSASSTSMEKAKGKEWTSTEKSREEDQQASNQPNSIALPGTSAKRTKEKMSIKGSKVLCPKKKAEHTDNPRPQKKIPIPPLPSKLPPVNLIHRDILRAWCQQLKLSSKGQKLDAYKRLCAFAYPNQKDFPSTAKEAKIRKSLQKKLKVEKGETSLQSSETHPPEVALPPVGEPPALENSTALLEGVNTVVVTTSAPEALLASWARISARARTPEAVESPQEASGVRWCVVHGKSLPADTDGWVHLQFHAGQAWVPEKQEGRVSALFLLPASNFPPPHLEDNMLCPKCVHRNKVLIKSLQWE
notes: DPPA4, human, endogenous in NCI-H661 non-small cell lung cancer cells; source: endogenous, NCI-H661 whole cell lysate
Consider B1, for which the “ratio between DPPA2 and DPPA4 (relative iBAQ) in the DPPA2-IP” value is greater than 1.
